Data taken from article PMC7949051, “Comparison of angiopoietin-like protein 3 and 4 reveals structural and mechanistic similarities” (The Journal of Biological Chemistry, 2021).

T1: Bovine lipoprotein lipase (bovine, UniProt P11151 29-478)
T1 sequence (looked up): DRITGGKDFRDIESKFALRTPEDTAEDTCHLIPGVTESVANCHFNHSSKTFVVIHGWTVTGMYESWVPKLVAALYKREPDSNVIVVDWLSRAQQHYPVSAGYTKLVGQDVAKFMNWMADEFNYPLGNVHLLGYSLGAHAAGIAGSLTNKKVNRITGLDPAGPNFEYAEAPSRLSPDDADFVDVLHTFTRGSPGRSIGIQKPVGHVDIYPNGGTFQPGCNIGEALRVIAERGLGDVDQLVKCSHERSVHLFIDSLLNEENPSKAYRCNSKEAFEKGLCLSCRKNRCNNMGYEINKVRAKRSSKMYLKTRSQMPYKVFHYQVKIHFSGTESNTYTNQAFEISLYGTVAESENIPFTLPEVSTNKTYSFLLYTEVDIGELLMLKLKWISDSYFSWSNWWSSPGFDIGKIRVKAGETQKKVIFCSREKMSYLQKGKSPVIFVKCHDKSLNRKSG

B1: N-terminal domain of human ANGPTL3 (S17-R224), hexamer (domain or fragment, UniProt Q9Y5C1 17-224, looked up)
chain: SRIDQDNSSFDSLSPEPKSRFAMLDDVKILANGLLQLGHGLKDFVHKTKGQINDIFQKLNIFDQSFYDLSLQTSEIKEEEKELRRTTYKLQVKNEEVKNMSLELNSKLESLLEEKILLQQKVKYLEEQLTNLIQNQPETPEHPEVTSLKTFVEKQDNSIKDLLQTVEDQYKQLNQQHSQIKEIENQLRRTSIQEPTEISLSSKPRAPR
notes: N-terminal (coiled-coil) domain of human ANGPTL3, residues S17 to R224; purified protein with tag 26.8 kDa; No TEV cleavage step is described; Same construct as m2; also called ANGPTL3 peak 1; ANGPTL3 hexamer; source: E. coli Bl21 (DE3) RIPL, purified (Ni-NTA, MonoQ anion exchange, SEC; peak 1 pooled); not shown: His6 with TEV cleavage site, N-terminal, kept
B2: N-terminal domain of human ANGPTL3 (S17-R224), trimer (domain or fragment, UniProt Q9Y5C1 17-224, looked up)
chain: B1 chain
notes: N-terminal (coiled-coil) domain of human ANGPTL3, residues S17 to R224; purified protein with tag 26.8 kDa; Same construct as m1; also called ANGPTL3 peak 2; ANGPTL3 trimer; source: E. coli Bl21 (DE3) RIPL, purified (Ni-NTA, MonoQ anion exchange, SEC; peak 2 pooled)
B3: N-terminal domain of human ANGPTL4 (domain or fragment, UniProt Q9BY76 26-163, looked up)
chain: GPVQSKSPRFASWDEMNVLAHGLLQLGQGLREHAERTRSQLSALERRLSACGSACQGTEGSTDLPLAPESRVDPEVLHSLQTQLKAQNSRIQQLFHKVAQQQRHLEKQHLRIQHLQSQFGLLDHKHLDHEVAKPARRK
notes: N-terminal (coiled-coil) domain of human ANGPTL4; monomer 15.4 kDa; also called N-terminal ANGPTL4; ANGPTL4 trimer
B4: N-terminal ANGPTL3 (1 to 224) produced in HEK-293 cells (domain or fragment, human, UniProt Q9Y5C1 17-224, looked up)
chain: B1 chain
modifications: N-linked glycans (sites not given)
notes: signal peptide in the construct; human ANGPTL3 residues 1 to 224, collected from the expression medium; also called ANGPTL3 produced in mammalian cells

What was measured:
[1] = molecular target: T1, Bovine lipoprotein lipase; assay: cell-based or functional assay
[2] = molecular target: T1, Bovine lipoprotein lipase; assay: enzyme inhibition kinetics (global noncompetitive fit of Michaelis-Menten curves); 10 nM bovine LPL pre-incubated with ANGPTL for 10 min at 22 °C, human VLDL varied, NEFA enzyme-coupled Amplex UltraRed read-out at 37 °C, initial rates; three biological replicates; details: both partners purified
[3] = molecular target: the molecule itself; assay: SEC-MALS; 24-ml S-200 column, 20 mM Tris-HCl pH 8, 150 mM NaCl, 5% glycerol, 0.5 ml/min; separately concentrated SEC peaks reinjected
[4] = molecular target: the molecule itself; assay: SEC; HEK-293-produced N-terminal ANGPTL3; elution compared with E. coli-produced ANGPTL3

| Binder | IC50 of inhibition of LPL activity (10 nM LPL, 200 μg/ml VLDL triglycerides, NEFA/Amplex UltraRed assay) [1] | Ki [2] | stoichiometry N [3] | stoichiometry N [4] |
| --- | --- | --- | --- | --- |
| B1 | 14.4 nM | 13.7 nM | 6 | – |
| B2 | 5.8 nM | 7.5 nM | 3 | – |
| B3 | 4.8 nM | 3.6 nM | 3 | – |
| B4 | – | – | – | 3 |
